Experimental data reported in the supplement of paper PMC9112550, “Optimization of the antimicrobial peptide Bac7 by deep mutational scanning” (BMC Biology, 2022).

test system: Escherichia coli TOP10; assay: shrunken log2 fold change of peptide-encoding DNA abundance (4.5 h post-induction vs induction); higher = less antimicrobial activity (less host growth inhibition); settings: time post-induction: 4.5 h; library: site-saturation at positions 5, 18, 19, 20
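Also: peptides expressed intracellularly from a pBAD plasmid library in pooled LB shake-flask culture, induced with 0.3% L-arabinose, DNA abundance read by NGS, three biological replicates, DESeq2 with apeglm shrinkage.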

Row | Sequence | shrunken log2 fold change
1 | RRIRGRPPRLPRPRPRPHDAPRP | 0.00554
2 | RRIRFRPPRLPRPRPRPALCPRP | -0.088
3 | RRIRPRPPRLPRPRPRPTEVPRP | -0.342
4 | RRIRCRPPRLPRPRPRPWWVPRP | -0.208
5 | RRIRVRPPRLPRPRPRPPSYPRP | 0.00807
6 | RRIRMRPPRLPRPRPRPMSMPRP | 0.11
7 | RRIRKRPPRLPRPRPRPFYHPRP | 0.0754
8 | RRIRHRPPRLPRPRPRPHMTPRP | -0.0109
9 | RRIRWRPPRLPRPRPRPYTDPRP | 0.102
10 | RRIRKRPPRLPRPRPRPNQVPRP | -0.0821
11 | RRIRYRPPRLPRPRPRPQMWPRP | -0.213
12 | RRIRDRPPRLPRPRPRPQMHPRP | 0.156
13 | RRIRARPPRLPRPRPRPNHKPRP | -0.351
14 | RRIRKRPPRLPRPRPRPCKSPRP | -0.0499
15 | RRIRPRPPRLPRPRPRPRMYPRP | -0.128
16 | RRIRFRPPRLPRPRPRPDCIPRP | -0.349
17 | RRIRNRPPRLPRPRPRPMGDPRP | -0.00663
18 | RRIRERPPRLPRPRPRPPSDPRP | 0.0848
19 | RRIRCRPPRLPRPRPRPHGQPRP | 0.0389
20 | RRIRQRPPRLPRPRPRPAAKPRP | -0.0272
21 | RRIRSRPPRLPRPRPRPSQRPRP | -0.0585
22 | RRIRRRPPRLPRPRPRPQRLPRP | 0.124
23 | RRIRDRPPRLPRPRPRPIDDPRP | 0.224
24 | RRIRKRPPRLPRPRPRPWWYPRP | -0.127
25 | RRIRPRPPRLPRPRPRPFMGPRP | -0.448

Row | Sequence | shrunken log2 fold change
26 | RRIRCRPPRLPRPRPRPFHMPRP | -0.36
27 | RRIRNRPPRLPRPRPRPTDNPRP | -0.353
28 | RRIRCRPPRLPRPRPRPEDFPRP | -0.198
29 | RRIRVRPPRLPRPRPRPKTKPRP | 0.0179
30 | RRIRTRPPRLPRPRPRPVHHPRP | -0.321
31 | RRIRERPPRLPRPRPRPLYSPRP | -0.54
32 | RRIRNRPPRLPRPRPRPKYGPRP | -0.174
33 | RRIRPRPPRLPRPRPRPDRSPRP | -0.1
34 | RRIRRRPPRLPRPRPRPNIIPRP | -0.0888
35 | RRIRGRPPRLPRPRPRPGFIPRP | 0.0369
36 | RRIRRRPPRLPRPRPRPDSTPRP | 0.187
37 | RRIRKRPPRLPRPRPRPWRKPRP | 0.0487
38 | RRIRLRPPRLPRPRPRPSGLPRP | -0.429
39 | RRIRGRPPRLPRPRPRPCQRPRP | 0.014
40 | RRIRIRPPRLPRPRPRPTQGPRP | -0.104
41 | RRIRYRPPRLPRPRPRPFNMPRP | -0.202
42 | RRIRLRPPRLPRPRPRPTWHPRP | 0.174
43 | RRIRVRPPRLPRPRPRPHLSPRP | -0.301
44 | RRIRHRPPRLPRPRPRPWMLPRP | -0.0885
45 | RRIRDRPPRLPRPRPRPKNCPRP | -0.15
46 | RRIRIRPPRLPRPRPRPLYPPRP | -0.561
47 | RRIRWRPPRLPRPRPRPHMIPRP | -0.219
48 | RRIRDRPPRLPRPRPRPCEFPRP | 0.013
49 | RRIRIRPPRLPRPRPRPCDIPRP | -0.416
50 | RRIRNRPPRLPRPRPRPWPTPRP | 0.216

Row | Sequence | shrunken log2 fold change
51 | RRIRMRPPRLPRPRPRPMRYPRP | -0.0558
52 | RRIRARPPRLPRPRPRPTSTPRP | 0.0502
53 | RRIRRRPPRLPRPRPRPFWQPRP | 0.0221
54 | RRIRWRPPRLPRPRPRPDEHPRP | 0.0519
55 | RRIRKRPPRLPRPRPRPRSGPRP | 0.183
56 | RRIRNRPPRLPRPRPRPYACPRP | -0.167
57 | RRIRTRPPRLPRPRPRPFVRPRP | -1.25
58 | RRIRDRPPRLPRPRPRPDGVPRP | -0.0199
59 | RRIRHRPPRLPRPRPRPWRRPRP | -0.0609
60 | RRIRCRPPRLPRPRPRPMYDPRP | -0.0891
61 | RRIRPRPPRLPRPRPRPTCMPRP | 0.219
62 | RRIRQRPPRLPRPRPRPHLYPRP | -0.129
63 | RRIRWRPPRLPRPRPRPLLKPRP | -0.0261
64 | RRIRLRPPRLPRPRPRPTSFPRP | -0.0182
65 | RRIRRRPPRLPRPRPRPEPTPRP | 0.543
66 | RRIRRRPPRLPRPRPRPDALPRP | 0.23
67 | RRIRRRPPRLPRPRPRPWVAPRP | 0.219
68 | RRIRTRPPRLPRPRPRPQTWPRP | -0.18
69 | RRIRARPPRLPRPRPRPMNDPRP | 0.138
70 | RRIRSRPPRLPRPRPRPCREPRP | 0.157
71 | RRIRARPPRLPRPRPRPKHMPRP | -0.158
72 | RRIRHRPPRLPRPRPRPWHFPRP | -0.0331
73 | RRIRERPPRLPRPRPRPQGKPRP | -0.345
74 | RRIRTRPPRLPRPRPRPYSIPRP | 0.015
75 | RRIRCRPPRLPRPRPRPEMMPRP | 0.0935

Row | Sequence | shrunken log2 fold change
76 | RRIRFRPPRLPRPRPRPPEKPRP | 0.078
77 | RRIRVRPPRLPRPRPRPVILPRP | -0.248
78 | RRIRDRPPRLPRPRPRPYVGPRP | -0.0122
79 | RRIRYRPPRLPRPRPRPEVIPRP | -0.01
80 | RRIRMRPPRLPRPRPRPECQPRP | 3.29
81 | RRIRHRPPRLPRPRPRPCEEPRP | 0.0167
82 | RRIRTRPPRLPRPRPRPIEDPRP | 0.0177
83 | RRIRFRPPRLPRPRPRPLANPRP | 0.0332
84 | RRIRFRPPRLPRPRPRPTIIPRP | -0.66
85 | RRIRVRPPRLPRPRPRPSKNPRP | -0.364
86 | RRIRCRPPRLPRPRPRPMNCPRP | -0.0537
87 | RRIRMRPPRLPRPRPRPLTVPRP | 0.169
88 | RRIRDRPPRLPRPRPRPWNQPRP | -0.0409
89 | RRIRWRPPRLPRPRPRPITIPRP | -0.162
90 | RRIRHRPPRLPRPRPRPMFIPRP | -0.0886
91 | RRIRLRPPRLPRPRPRPLIFPRP | -0.656
92 | RRIRSRPPRLPRPRPRPVSFPRP | 0.118
93 | RRIRSRPPRLPRPRPRPMLIPRP | -0.131
94 | RRIRDRPPRLPRPRPRPPYEPRP | -0.0831
95 | RRIRLRPPRLPRPRPRPYNGPRP | -0.103
96 | RRIRKRPPRLPRPRPRPIAVPRP | 0.131
97 | RRIRDRPPRLPRPRPRPWCMPRP | -1
98 | RRIRDRPPRLPRPRPRPSAEPRP | 0.162
99 | RRIRLRPPRLPRPRPRPDHDPRP | -0.0947
100 | RRIRRRPPRLPRPRPRPIWFPRP | 0.0342

Row | Sequence | shrunken log2 fold change
101 | RRIRARPPRLPRPRPRPPVTPRP | 0.354
102 | RRIRRRPPRLPRPRPRPLPVPRP | 0.373
103 | RRIRARPPRLPRPRPRPTCQPRP | 0.431
104 | RRIRARPPRLPRPRPRPCKRPRP | -0.0822
105 | RRIRDRPPRLPRPRPRPRSRPRP | 0.00639
106 | RRIRDRPPRLPRPRPRPQTDPRP | -0.0328
107 | RRIRFRPPRLPRPRPRPWRNPRP | -0.133
108 | RRIRMRPPRLPRPRPRPPDHPRP | 0.456
109 | RRIRDRPPRLPRPRPRPGRTPRP | -0.0421
110 | RRIRYRPPRLPRPRPRPFTNPRP | 0.0209
111 | RRIRFRPPRLPRPRPRPMGGPRP | -0.166
112 | RRIRARPPRLPRPRPRPADWPRP | 0.984
113 | RRIRIRPPRLPRPRPRPFIEPRP | -0.848
114 | RRIRDRPPRLPRPRPRPHGVPRP | -0.00965
115 | RRIRGRPPRLPRPRPRPDCMPRP | 0.909
116 | RRIRARPPRLPRPRPRPWWAPRP | 0.289
117 | RRIRVRPPRLPRPRPRPTLLPRP | -0.196
118 | RRIRPRPPRLPRPRPRPPHKPRP | 0.452
119 | RRIRFRPPRLPRPRPRPPNKPRP | 0.1
120 | RRIRDRPPRLPRPRPRPEVFPRP | 0.443
121 | RRIRMRPPRLPRPRPRPMEQPRP | 1.29
122 | RRIRIRPPRLPRPRPRPYYYPRP | -1.08
123 | RRIRSRPPRLPRPRPRPHFIPRP | -0.344
124 | RRIRMRPPRLPRPRPRPAPDPRP | 1.15
125 | RRIRWRPPRLPRPRPRPVFPPRP | 0.268

Row | Sequence | shrunken log2 fold change
126 | RRIRTRPPRLPRPRPRPVAEPRP | 0.191
127 | RRIRGRPPRLPRPRPRPVAVPRP | 0.912
128 | RRIRQRPPRLPRPRPRPDWEPRP | 0.0238
129 | RRIRVRPPRLPRPRPRPPVIPRP | -0.101
130 | RRIRARPPRLPRPRPRPVTCPRP | 0.0514
131 | RRIRMRPPRLPRPRPRPVIEPRP | -0.0535
132 | RRIRSRPPRLPRPRPRPYMEPRP | 2.73
133 | RRIRLRPPRLPRPRPRPGNAPRP | 0.0676
134 | RRIRFRPPRLPRPRPRPQWFPRP | -0.344
135 | RRIRLRPPRLPRPRPRPLPGPRP | 0.781
136 | RRIRIRPPRLPRPRPRPRLNPRP | -0.247
137 | RRIRVRPPRLPRPRPRPWRDPRP | 0.202
138 | RRIRDRPPRLPRPRPRPWLNPRP | -0.277
139 | RRIRYRPPRLPRPRPRPETVPRP | -0.0477
140 | RRIRCRPPRLPRPRPRPDWFPRP | -0.141
141 | RRIRRRPPRLPRPRPRPLSPPRP | 0.411
142 | RRIRCRPPRLPRPRPRPPYHPRP | -0.334
143 | RRIRVRPPRLPRPRPRPWYWPRP | -0.332
144 | RRIRKRPPRLPRPRPRPINGPRP | 0.00103
145 | RRIRHRPPRLPRPRPRPLGNPRP | 0.017
146 | RRIRGRPPRLPRPRPRPYHWPRP | -0.407
147 | RRIRWRPPRLPRPRPRPMWIPRP | 0.135
148 | RRIRWRPPRLPRPRPRPGFRPRP | 0.221
149 | RRIRWRPPRLPRPRPRPCQYPRP | 0.0863
150 | RRIRCRPPRLPRPRPRPRGEPRP | 0.435
